Assay results taken from patent publication US20170369552A1.

Assays:
[1] = molecular target: VEGF165, a splice variant of VEGF-A (UniProt P15692); experiment: cell-based or functional assay
[2] = molecular target: VEGF165, a splice variant of VEGF-A (UniProt P15692); experiment: competitive binding in solution; 5 pM VEGF165 overnight, free VEGF165 by Quantikine sandwich ELISA
[3] = molecular target: VEGF165, a splice variant of VEGF-A (UniProt P15692); experiment: direct binding ELISA; VEGF165 coated, anti-human IgG Fc-HRP detection

VEGF165, a splice variant of VEGF-A, sequence (P15692 other isoform, or with tags, fused parts or gaps mutant): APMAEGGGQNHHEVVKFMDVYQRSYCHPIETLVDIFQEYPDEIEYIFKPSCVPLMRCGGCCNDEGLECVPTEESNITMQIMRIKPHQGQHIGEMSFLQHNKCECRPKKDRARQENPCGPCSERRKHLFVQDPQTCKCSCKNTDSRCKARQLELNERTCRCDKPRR

inhibition of VEGF-dependent HUVEC proliferation, IC50 [1]: 0.068 nM | IC50 [2]: 0.00517 nM | EC50 [3]: 0.087 nM
Substance: Positive Control 1 (synthesized VEGF Trap) (from UniProt P17948 129-230; P35968 225-327) (Fc fusion)
